Reference: publication PMC12145424, “Structural insights into tRNA recognition of the human FTSJ1-THADA complex” (Communications Biology, 2025)

Target: T1, Human THADA (FLAG- and streptavidin-binding-sequence-tagged, co-expressed with FTSJ1) (human, UniProt Q6YHU6 1-1953)
T1 construct: THADA, human; gene PCR-amplified and cloned into a modified pcDNA3.4 vector; no TEV cleavage step is described; also called Trm732 (yeast name); not shown: FLAG, N-terminal, kept
Test: SEC; FTSJ1 and THADA co-expressed in HEK293F, purified on anti-FLAG beads, then HiLoad 16/600 Superdex 200pg in 20 mM Tris-HCl pH 7.5, 150 mM NaCl, 2 mM DTT; fractions analysed by SDS-PAGE
Conditions: both partners purified

T1 sequence (Q6YHU6 whole entry): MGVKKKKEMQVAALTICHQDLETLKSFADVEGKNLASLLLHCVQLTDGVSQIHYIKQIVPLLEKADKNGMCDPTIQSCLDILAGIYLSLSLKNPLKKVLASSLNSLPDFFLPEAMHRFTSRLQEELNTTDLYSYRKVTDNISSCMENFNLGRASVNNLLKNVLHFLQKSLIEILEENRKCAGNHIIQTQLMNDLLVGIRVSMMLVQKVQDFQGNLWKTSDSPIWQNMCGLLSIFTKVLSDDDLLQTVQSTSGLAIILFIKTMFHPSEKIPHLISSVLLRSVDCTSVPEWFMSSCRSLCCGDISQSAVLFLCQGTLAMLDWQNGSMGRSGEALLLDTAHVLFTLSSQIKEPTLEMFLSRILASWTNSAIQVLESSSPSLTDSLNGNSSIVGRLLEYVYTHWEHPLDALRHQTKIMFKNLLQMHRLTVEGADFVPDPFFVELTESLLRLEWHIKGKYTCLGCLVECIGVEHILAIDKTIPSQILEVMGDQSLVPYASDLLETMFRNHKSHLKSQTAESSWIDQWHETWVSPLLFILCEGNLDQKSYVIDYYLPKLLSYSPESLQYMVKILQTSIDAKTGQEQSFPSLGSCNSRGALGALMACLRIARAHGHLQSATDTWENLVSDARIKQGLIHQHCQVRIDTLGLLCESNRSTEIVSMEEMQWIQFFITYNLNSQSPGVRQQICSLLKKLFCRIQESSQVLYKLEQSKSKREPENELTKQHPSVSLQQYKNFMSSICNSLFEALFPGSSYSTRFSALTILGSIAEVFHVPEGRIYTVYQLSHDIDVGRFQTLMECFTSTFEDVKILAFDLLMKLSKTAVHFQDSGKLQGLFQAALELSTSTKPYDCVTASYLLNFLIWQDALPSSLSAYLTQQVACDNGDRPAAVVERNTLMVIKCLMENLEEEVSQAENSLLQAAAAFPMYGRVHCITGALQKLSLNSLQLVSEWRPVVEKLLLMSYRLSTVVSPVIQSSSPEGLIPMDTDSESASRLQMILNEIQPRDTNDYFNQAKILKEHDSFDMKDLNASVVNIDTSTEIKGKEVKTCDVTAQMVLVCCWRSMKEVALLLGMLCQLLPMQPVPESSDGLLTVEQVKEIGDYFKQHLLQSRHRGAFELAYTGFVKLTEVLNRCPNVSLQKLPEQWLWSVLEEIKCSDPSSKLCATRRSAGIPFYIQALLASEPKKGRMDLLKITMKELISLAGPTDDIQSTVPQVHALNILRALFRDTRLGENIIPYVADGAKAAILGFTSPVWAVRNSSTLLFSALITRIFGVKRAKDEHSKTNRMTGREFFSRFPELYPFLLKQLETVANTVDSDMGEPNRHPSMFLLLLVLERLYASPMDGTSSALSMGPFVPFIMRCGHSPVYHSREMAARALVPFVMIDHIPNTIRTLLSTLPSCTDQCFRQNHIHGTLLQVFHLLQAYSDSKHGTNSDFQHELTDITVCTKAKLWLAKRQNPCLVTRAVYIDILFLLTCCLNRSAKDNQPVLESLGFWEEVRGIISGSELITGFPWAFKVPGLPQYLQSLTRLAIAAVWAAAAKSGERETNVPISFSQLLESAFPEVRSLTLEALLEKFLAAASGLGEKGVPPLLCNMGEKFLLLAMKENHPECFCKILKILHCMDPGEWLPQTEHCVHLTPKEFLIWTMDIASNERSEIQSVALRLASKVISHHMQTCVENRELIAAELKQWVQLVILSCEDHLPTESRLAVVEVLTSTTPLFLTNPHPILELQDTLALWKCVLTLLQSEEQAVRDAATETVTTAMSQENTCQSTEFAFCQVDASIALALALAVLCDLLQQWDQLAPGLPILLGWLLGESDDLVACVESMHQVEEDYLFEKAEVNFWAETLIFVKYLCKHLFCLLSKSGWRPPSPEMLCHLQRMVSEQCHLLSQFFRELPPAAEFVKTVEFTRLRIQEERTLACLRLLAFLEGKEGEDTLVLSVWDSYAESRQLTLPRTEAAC

B1: Human FTSJ1 (FLAG-tagged, co-expressed with THADA) (enzyme)
chain: MGRTSKDKRDVYYRLAKENGWRARSAFKLLQLDKEFQLFQGVTRAVDLCAAPGSWSQVLSQKIGGQGSGHVVAVDLQAMAPLPGVVQIQGDITQLSTAKEIIQHFKGCPADLVVCDGAPDVTGLHDVDEYMQAQLLLAALNIATHVLKPGGCFVAKIFRGRDVTLLYSQLQVFFSSVLCAKPRSSRNSSIEAFAVCQGYDPPEGFIPDLSKPLLDHSYDPDFNQLDGPTRIIVPFVTCGDLSSYDSDRSYPLDLEGGSEYKYTPPTQPPISPPYQEACTLKRKGQLAKEIRPQDCPISRVDTFPQPLAAPQCHTLLAPEMEDNEMSCSP
notes: FTSJ1, human; gene PCR-amplified and cloned into a modified pcDNA3.4 vector; no TEV cleavage step is described in the purification; also called Trm7 (yeast name); not shown: FLAG, N-terminal, kept
  binding result: binds
